Two molecules from PMC4664405, “Mapping Soluble Guanylyl Cyclase and Protein Disulfide Isomerase Regions of Interaction” (PLoS ONE, 2015) can be followed below.

T1: soluble guanylyl cyclase (sGC) α subunit, of the purified reduced sGC (human, UniProt Q02108 1-690)
T1 construct: soluble guanylyl cyclase α subunit, human GCYA3; called full-length reduced sGC in the discussion; cross-linked lysines K5, K606, K672, K673, K685; Bought as the α/β heterodimer and reduced before incubation with PDI; also called GCYA3; source: bought: Axxora
T1 sequence (looked up): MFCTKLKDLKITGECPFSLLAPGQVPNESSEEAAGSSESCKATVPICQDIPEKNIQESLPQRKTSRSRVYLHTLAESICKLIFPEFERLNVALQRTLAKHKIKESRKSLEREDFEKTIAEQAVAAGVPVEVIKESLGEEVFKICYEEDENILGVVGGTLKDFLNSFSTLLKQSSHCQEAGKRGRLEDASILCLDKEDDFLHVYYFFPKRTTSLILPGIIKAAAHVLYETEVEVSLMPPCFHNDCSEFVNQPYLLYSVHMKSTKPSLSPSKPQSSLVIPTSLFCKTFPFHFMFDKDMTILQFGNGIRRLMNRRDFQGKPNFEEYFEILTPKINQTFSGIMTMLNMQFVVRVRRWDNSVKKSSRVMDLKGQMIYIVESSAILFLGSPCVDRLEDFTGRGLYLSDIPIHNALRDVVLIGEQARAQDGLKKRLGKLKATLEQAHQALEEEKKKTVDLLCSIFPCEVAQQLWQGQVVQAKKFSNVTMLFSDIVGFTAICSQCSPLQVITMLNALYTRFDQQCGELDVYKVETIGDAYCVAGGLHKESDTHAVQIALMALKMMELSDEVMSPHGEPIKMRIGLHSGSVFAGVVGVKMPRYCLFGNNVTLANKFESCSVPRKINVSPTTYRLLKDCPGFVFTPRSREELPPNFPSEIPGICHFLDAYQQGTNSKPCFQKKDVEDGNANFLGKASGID

B1: soluble guanylyl cyclase (sGC) β subunit, of the purified reduced sGC (enzyme, human, UniProt Q02153 1-619, looked up)
chain: MYGFVNHALELLVIRNYGPEVWEDIKKEAQLDEEGQFLVRIIYDDSKTYDLVAAASKVLNLNAGEILQMFGKMFFVFCQESGYDTILRVLGSNVREFLQNLDALHDHLATIYPGMRAPSFRCTDAEKGKGLILHYYSEREGLQDIVIGIIKTVAQQIHGTEIDMKVIQQRNEECDHTQFLIEEKESKEEDFYEDLDRFEENGTQESRISPYTFCKAFPFHIIFDRDLVVTQCGNAIYRVLPQLQPGNCSLLSVFSLVRPHIDISFHGILSHINTVFVLRSKEGLLDVEKLECEDELTGTEISCLRLKGQMIYLPEADSILFLCSPSVMNLDDLTRRGLYLSDIPLHDATRDLVLLGEQFREEYKLTQELEILTDRLQLTLRALEDEKKKTDTLLYSVLPPSVANELRHKRPVPAKRYDNVTILFSGIVGFNAFCSKHASGEGAMKIVNLLNDLYTRFDTLTDSRKNPFVYKVETVGDKYMTVSGLPEPCIHHARSICHLALDMMEIAGQVQVDGESVQITIGIHTGEVVTGVIGQRMPRYCLFGNTVNLTSRTETTGEKGKINVSEYTYRCLMSPENSDPQFHLEHRGPVSMKGKKEPMQVWFLSRKNTGTEETKQDDD
notes: soluble guanylyl cyclase β subunit, human GCYB1; called full-length reduced sGC in the discussion; cross-linked lysines K127, K187, K559, K615; Bought as the α/β heterodimer and reduced before incubation with PDI; also called GCYB1; source: bought: Axxora
B2: protein disulfide isomerase (PDI), oxidized, purified (enzyme)
chain: not shown
modifications: oxidized: each active site Cys-x-x-Cys forms a disulfide bond
notes: protein disulfide isomerase, human P4HB; called full-length oxidized PDI in the discussion; cross-linked lysines K370 and K409; also called oxidized PDI; oxPDI; source: PDI in pTRC-HisA, purified as described previously [11]

For assay [1], the target named is T1, soluble guanylyl cyclase (sGC) α …. As to the kind of experiment: cross-linking; reduced sGC and oxidized PDI incubated, 50 molar excess of BS3 for 30 minutes at room temperature (22°C) in the dark, alkylated with 40 mM iodoacetamide, non-reducing 7.5% TGX gel, bands digested with trypsin, RPLC-MS/MS, MassMatrix search. The note with it: both partners purified.

Assay [2] addresses B1. The description is as above. The note with it: both partners purified.

As for B1, the binding result in assay [1] is listed as “binds”.

As for B2, the binding result in assay [2] and in assay [1] was “binds” each time.
